The source of these data is the nanobody polyreactivity screen of Harvey et al. (2022).

The series can be described thus: yeast display, Sf9 membrane polyspecificity reagent, FACS + sequencing; frameworks hold sequencing errors. The gist of the method: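 A synthetic nanobody library was expressed on Saccharomyces cerevisiae BJ5465 by galactose induction for 36–48 hours. The library was stained for 1 hour at 4 °C with 10% biotinylated, detergent-solubilized Sf9 membrane reagent and enriched with streptavidin microbeads before FACS. Low and high (top ~1%) gates were set on anti-HA fluorescence for expression and streptavidin fluorescence for reagent binding, and each polyreactivity label reflects the gate of origin.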
Take “QVQLVESGGGLVQAGGSLRLSCAASGSIYGYYAMGWSRQAPGKERELVAAISWSDGSTYYADSVKGRFTISRDNAKNTVYLQMNSLKPEDTAVYYCAARFTPYITSDDGHYDYWGQGTQVTVSS”: the “polyreactivity (PSR sort gate)” value is recorded as “low polyreactivity”.

As to “QVQLEESGGGLVQAGGSLRLSCAASGSTLEYNVMGWYRQAPGKERELVAAFSRSGGITYYADSVKGRFTISRDNAKNTVYLQMNRLKPEDTAVYYCNRLYTRVREYESWGQGTQVTVSS”, the “polyreactivity (PSR sort gate)” value is listed as “high polyreactivity”.

As for “QVQLVESGGGYVQAGGSLRLSCAASGSTFRYYAMGWYRQAPGKEREFVASITQSGGSTYYADSVMGRFTISRDNAKNTVYLQMISLKPEDTAVYYCAADVYSWVYLMDYWGQGTQVTVSS”, the “polyreactivity (PSR sort gate)” value is “low polyreactivity”.

For the sequence “QVQLVESGGGLVQAGGSLRLSCAASGSIFYYNAMGWYRQAPGKERELVASISERGGITRYADSVKGRFTISRDNAKNTVYLQMNSLKREDTAVYYCNRSISLTFYAYAGYFLALDYWGQGTQVTVSS”, the “polyreactivity (PSR sort gate)” value is “low polyreactivity”.

“QVQLVESGGGLVHAGGSLRLSCAASGSIFGFYTMGWYRQAPGKERELVAAITWSGGRTYYADSVKGRFTISRDNAKNTVYLQMNSLKPEDTAVYYCNRDGRSRWYYASAGYNYWGQGTQVTVSS”: the “polyreactivity (PSR sort gate)” value is “high polyreactivity”.

Consider “QVQLVESGGGLVQAGGSLRLSCAASGITFRGNAMGWYRQAPGKERELVATISSGGITNYADSVKGRFTISRDNAKNTVYLQMNSLKPEDTAVYSCAADLFVHKPRYQYSFDYWGQGTQVTVSS”, for which the “polyreactivity (PSR sort gate)” value was “low polyreactivity”.

“QVQLVESGGGLVKAGGSLRLSCAASGLISYPYSMGWYRQSPWKERELVAAITSRGTSTYYADSVKGRFTISRDNAKYTVYLHMNSLKPEDTAVYYCNAVVWRSRVDYYYWGQGTQVTVSS”: the “polyreactivity (PSR sort gate)” value is “high polyreactivity”.

As for “QVQLVESAGGLVQAGGSLRLSCAASGYTFKLYAMGWSRQAPGKERELVAAIRQRGGTTYYADSVKGRVTISRDNAKNTVYLQMNSLKPEDTAVYYCAVRFYLPNANGGYYYWGQGTQVTVSS”, the “polyreactivity (PSR sort gate)” value is “high polyreactivity”.

For “QVHLVESGGGLVQAGGSLRLSCAASGSIFSSYAMGWYRQAPGKEREFVAAISWGGGSTYYADSVKGRFTISRDNAKNSVYLQMNSLKPEDTAVYYCAVETWLYPYDYWGQGTQVTVSS”, the “polyreactivity (PSR sort gate)” value is “high polyreactivity”.

Consider “QVQLVESGGGIVQAGGSLRLSCAASGRTFRRYVMGWYRQAPGKERELVAAITVSGGNTYYADSVKGSFTISRDNAKNTVYLQMNSLKPEDTAVYYCNADAGAIYYRRYHFYYWGQGTQVTVSS”, for which the “polyreactivity (PSR sort gate)” value was “low polyreactivity”.

Take “QVQLVESGGGLVQAGGSLRLSCAASGRIFRYYAMGWYRPATGKERELVAGITRGGTTNYSDSVKGRFTISRDNAKNTVYLQMNSLKPEDTAVYYCAADTRRGIIGYDYWGQGTQVTVSS”: the “polyreactivity (PSR sort gate)” value is “high polyreactivity”.

For “QVQLVESGGGLVQAGGSLRLSCAASGITFVRYTMGWYRQAPGKEWELVATITLSGGRTYYADSVQGRFTISRDNAKNTVSLQMTSLKPEDTAVYYCAASSRSRWSGYRYDYWGQGTQVTVSS”, the “polyreactivity (PSR sort gate)” value was “high polyreactivity”.

Consider “QVQLVESGGGLVQAGGSLRLSCAASGSIFSGYAMGWYRQAPGKESELVAAISGSGGSTFYADSVKGRFTISRDNAKNTVYLQMISLKPEDTAVYYCAARRIAPFGRYDYWGQGTQVTVSS”, for which the “polyreactivity (PSR sort gate)” value is listed as “low polyreactivity”.

As for “QVQRVESGGGLVQAGGSLRLSCAASGSTFVNYVMGLYRQAPGKERELVAAISWSGGRTYYADSMKGRFTISRDNAKNTVYLQMNSLKPEDTAVYYCNAVYAGFLRVRYDYWGQGTQVTVSS”, the “polyreactivity (PSR sort gate)” value was “high polyreactivity”.

For “QVQLVESGGGLVQAGGSLRLSCAASGITFDYYAMGWYRQAPGKERELVAAIDTGGSTNYADSVKGRFTISRDNAKNTVYLQMNSLKPEDTAVYYCAKDPHGSDFGYWGQGTQVTVSS”, the “polyreactivity (PSR sort gate)” value was “low polyreactivity”.

On to “QVQLVESGGGLVQAGGSLRLSCAASGLTFYRNAMGWYRQAPGKERELVAAITSRGGSTYYADSVKGRFTISRDNAKNTVYLQMNSLKPEDTAVYYCAAYSTLITGRDYGYWGQGTQVTVSS”, for which the “polyreactivity (PSR sort gate)” value is “high polyreactivity”.
